Where a chain is given by its changes, count along the chain named. In names and notes the source's numbering stands.
What was measured:
[1] = target: Factor X (FX) zymogen, active site titrated and DFP/EGR-cmk treated, P00742
[2] = target: Factor X (FX), P00742
[3] = target: Factor X, P00742
[4] = target: plasma purified human AT-III (Molecular Innovations), in complex with low molecular weight heparin
[5] = target: antithrombin III (plasma purified human AT-III), used as the AT-III/unfractionated heparin complex; assay: K0.5 ratio to Catalyst Biosciences WT FIXa, AT-III/UFH inhibition assay (from lower-limit K0.5)
[6] = target: T1, Antithrombin III (plasma purified human AT-III, Molecular Innovations); assay: same assay; ratio of the lower-limit K0.5 to recombinant wild-type FIXa (Catalyst Biosciences WT)
[7] = target: T1, Antithrombin III (plasma purified human …); assay: AT-III/UFH inhibition, standard assay (35 nM-0 nM AT-III); 999 nM is the assigned lower limit for less than 10% inhibition
[8] = target: plasma purified human AT-III (antithrombin III); assay: same assay; ratio to K0.5 of Catalyst Biosciences WT FIXa
[9] = target: plasma purified human AT-III (antithrombin III); assay: same assay; ratio to K0.5 of Catalyst Biosciences WT FIXa; from lower limit value
[10] = target: plasma purified human antithrombin III (AT-III), in complex with unfractionated heparin (UFH); assay: ratio of K0.5 for AT-III/UFH inhibition, variant over Catalyst Biosciences WT FIXa
[11] = target: plasma purified human antithrombin III (AT-III), in complex with unfractionated heparin; assay: K0.5 of variant over K0.5 of Catalyst Biosciences WT FIXa; AT-III/UFH inhibition assay

Sequence of Factor X (FX), P00742 (P00742 whole entry, looked up): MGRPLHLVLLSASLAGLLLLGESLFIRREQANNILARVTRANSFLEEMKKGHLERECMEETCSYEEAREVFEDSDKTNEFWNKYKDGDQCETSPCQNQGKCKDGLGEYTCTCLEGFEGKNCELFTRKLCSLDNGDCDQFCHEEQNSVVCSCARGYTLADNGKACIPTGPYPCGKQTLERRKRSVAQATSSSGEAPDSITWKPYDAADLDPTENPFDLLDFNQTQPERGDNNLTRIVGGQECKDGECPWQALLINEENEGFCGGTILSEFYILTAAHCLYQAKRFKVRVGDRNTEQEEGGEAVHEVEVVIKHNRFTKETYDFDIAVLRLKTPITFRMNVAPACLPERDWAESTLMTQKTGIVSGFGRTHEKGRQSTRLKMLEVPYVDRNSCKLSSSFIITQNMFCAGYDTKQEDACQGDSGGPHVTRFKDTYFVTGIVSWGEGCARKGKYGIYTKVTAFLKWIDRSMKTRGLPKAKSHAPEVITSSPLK
Sequence of Factor X, P00742 (P00742 whole entry, looked up): as above
Sequence of Factor X (FX) zymogen, active site titrated and DFP/EGR-cmk treated, P00742 (P00742 whole entry, looked up): as above

B1: FIXa-K228N/K247N/N249S/R318Y/T343R/R403E/E410N (activated Factor IX variant, mature FIX numbering) (protein)
chain 1: YNSGKLEEFVQGNLERECMEEKCSFEEAREVFENTERTTEFWKQYVDGDQCESNPCLNGGSCKDDINSYECWCPFGFEGKNCELDVTCNIKNGRCEQFCKNSADNKVVCSCTEGYRLAENQKSCEPAVPFPCGRVSVSQTSKLTR
chain 2: VVGGEDAKPGQFPWQVVLNGKVDAFCGGSIVNEKWIVTAAHCVETGVNITVVAGEHNIEETEHTEQNRSVIRIIPHHNYNAAINKYNHDIALLELDEPLVLNSYVTPICIADKEYTNIFLKFGSGYVSGWGRVFHKGYSALVLQYLRVPLVDRATCLRSTKFRIYNNMFCAGFHEGGRDSCQGDSGGPHVTEVEGTSFLTGIISWGEECAMKGKYGIYTKVSEYVNWIKNKTKLT
- % of WT kcat/KM (against recombinant Catalyst Biosciences WT FIXa) [1]: 153%
- kcat/KM (catalytic activity for FX activation; Xase complex with FVIIIa, PC/PS vesicles and Ca2+; fluorogenic Spectrafluor FXa read-out) [1]: 7.1e+07 M⁻¹ s⁻¹

B2: FIXa-K293A/R338A/R403A (protein)
chain 1: B1 chain 1
chain 2: B1 chain 2 with N48K, N67K, S69N, K113A, Y138R, R158A, R163T, E223A, N230E
- % of WT kcat/KM [2]: 55%
- kcat [2]: 1.6 s⁻¹
- kcat/KM [2]: 2.5e+07 M⁻¹ s⁻¹
- KM [3]: 0.0654 µM
- K0.5 [4]: 497 nM
- K0.5-mut/K0.5-wt [4]: 16.9 fold
- K0.5-mut/K0.5-wt [5]: > 51.7 fold
- K0.5-mut/K0.5-wt [6]: > 51.7
- K0.5 [7]: > 999 nM

B3: FIXa-K293E/R338E/R403E (protein)
chain 1: B1 chain 1
chain 2: B1 chain 2 with N48K, N67K, S69N, K113E, Y138R, R158E, R163T, N230E
- % of WT kcat/KM [2]: 37%
- kcat [2]: 0.8 s⁻¹
- kcat/KM [2]: 1.7e+07 M⁻¹ s⁻¹
- KM [3]: 0.05 µM
- K0.5 [4]: 418 nM
- K0.5-mut/K0.5-wt [4]: 14.2 fold
- K0.5-mut/K0.5-wt [5]: > 51.7 fold
- K0.5-mut/K0.5-wt [6]: > 51.7
- K0.5 [7]: > 999 nM

B4: FIXa-A103N/N105S/R318Y/R338E/R403E/E410N (protein)
chain 1: B1 chain 1 with A103N, N105S
chain 2: B1 chain 2 with N48K, N67K, S69N, R158E, R163T
- kcat [2]: 5.4 s⁻¹
- KM [3]: 0.0447 µM
- K0.5-mut/K0.5-wt [8]: 475

B5: FIXa-D104N/K106S/R318Y/R338E/R403E/E410N (protein)
chain 1: B1 chain 1 with D104N, K106S
chain 2: B1 chain 2 with N48K, N67K, S69N, R158E, R163T
- kcat [2]: 5.7 s⁻¹
- KM [3]: 0.0385 µM
- K0.5-mut/K0.5-wt [9]: > 517

B6: FIXa-Y155F/R318Y/R338E/R403E/E410N (protein)
chain 1: B1 chain 1
chain 2: B1 chain 2 with N48K, N67K, S69N, R158E, R163T
- kcat [2]: 5.3 s⁻¹
- KM [3]: 0.0304 µM
- K0.5-mut/K0.5-wt [9]: > 517

B7: FIXa-A103N/N105S/Y155F/R318Y/R338E/R403E/E410N (protein)
chain 1: B1 chain 1 with A103N, N105S
chain 2: B1 chain 2 with N48K, N67K, S69N, R158E, R163T
- kcat [2]: 6.4 s⁻¹
- KM [3]: 0.0507 µM
- K0.5-mut/K0.5-wt [9]: > 517

B8: FIXa-D104N/K106S/Y155F/R318Y/R338E/R403E/E410N (protein)
chain 1: B1 chain 1 with D104N, K106S
chain 2: B1 chain 2 with N48K, N67K, S69N, R158E, R163T
- kcat [2]: 8.5 s⁻¹
- KM [3]: 0.048 µM
- K0.5-mut/K0.5-wt [9]: > 517

B9: FIXa-D203N/F205T/R318Y/E410N (protein)
chain 1: B1 chain 1
chain 2: B1 chain 2 with D23N, F25T, N48K, N67K, S69N, R163T, E223R
- kcat [2]: 1.6 s⁻¹
- KM [3]: 0.0457 µM
- K0.5-mut/K0.5-wt [8]: 66.2

B10: FIXa-Y155F/K247N/N249S/N260S (protein)
chain 1: B1 chain 1
chain 2: B1 chain 2 with N48K, N80S, Y138R, R163T, E223R, N230E
- KM [2]: 0.0965 µM
- kcat of FX activation by FIXa (Xase complex with FVIIIa, PC/PS vesicles, Ca2+) [2]: 1.8 s⁻¹
- % of WT kcat/KM [3]: 43%
- kcat [3]: 1.8 s⁻¹
- kcat/KM [3]: 1.9e+07 M⁻¹ s⁻¹
- K0.5-mut/K0.5-wt [10]: 7.9 fold

B11: FIXa-D104N/K106S/K247N/N249S/N260S (protein)
chain 1: B1 chain 1 with D104N, K106S
chain 2: B1 chain 2 with N48K, N80S, Y138R, R163T, E223R, N230E
- KM [2]: 0.0612 µM
- kcat of FX activation by FIXa (Xase complex with FVIIIa, PC/PS vesicles, Ca2+) [2]: 0.6 s⁻¹
- % of WT kcat/KM [3]: 22%
- kcat [3]: 0.6 s⁻¹
- kcat/KM [3]: 9.8e+06 M⁻¹ s⁻¹
- K0.5-mut/K0.5-wt [10]: 65.3 fold

B12: FIXa-D104N/K106S/Y155F/K247N/N249S/N260S (protein)
chain 1: B1 chain 1 with D104N, K106S
chain 2: B1 chain 2 with N48K, N80S, Y138R, R163T, E223R, N230E
- KM [2]: 0.0685 µM
- kcat of FX activation by FIXa (Xase complex with FVIIIa, PC/PS vesicles, Ca2+) [2]: 0.5 s⁻¹
- % of WT kcat/KM [3]: 18%
- kcat [3]: 0.5 s⁻¹
- kcat/KM [3]: 8.2e+06 M⁻¹ s⁻¹
- K0.5-mut/K0.5-wt [10]: 35.8 fold

B13: FIXa-K247N/N249S/N260S/R318Y/R338E/R403E/E410N (protein)
chain 1: B1 chain 1
chain 2: B1 chain 2 with N48K, N80S, R158E, R163T
- KM [2]: 0.0622 µM
- kcat of FX activation by FIXa (Xase complex with FVIIIa, PC/PS vesicles, Ca2+) [2]: 3.4 s⁻¹
- % of WT kcat/KM [3]: 217%
- kcat [3]: 6 s⁻¹
- kcat/KM [3]: 9.7e+07 M⁻¹ s⁻¹
- K0.5-mut/K0.5-wt [10]: 288 fold

B14: FIXa-K247N/N249S/N260S (protein)
chain 1: B1 chain 1
chain 2: B1 chain 2 with N48K, N80S, Y138R, R163T, E223R, N230E
- KM [2]: 0.114 µM
- kcat of FX activation by FIXa (Xase complex with FVIIIa, PC/PS vesicles, Ca2+) [2]: 3.3 s⁻¹
- K0.5-mut/K0.5-wt [10]: 8.1 fold

B15: FIXa A103N/N105S/R318Y/R338E/R403E/E410N (protein)
chain 1: B1 chain 1 with A103N, N105S
chain 2: B1 chain 2 with N48K, N67K, S69N, R158E, R163T
- KM [2]: 0.0447 µM
- K0.5-mut/K0.5-wt [11]: 475

Reference: US20210238260
